From patent publication US20200325237A1 (AVIDITY BIOSCIENCES, published 2020) come the findings set out here.

The target in assay [1] is T1, hTfR (human transferrin receptor, source and construct not stated) (human, UniProt P02786 89-760, limits assumed). In words: ELISA; ratio of the Kd on transferrin-captured hTfR to the Kd on directly coated hTfR. The gist of the method: (§1)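 Human holo-transferrin coated at 500 ng/mL (4 °C overnight) captured hTfR (200 ng/mL, 30 min); comparison plates carried directly coated hTfR. Biotinylated antibodies, 3-fold series from 20 nM (pre-addition), bound 1 h; streptavidin-HRP/TMB, A450 minus A570. Kd from specific binding with Hill slope; shift judged against reference antibody AF2474 with transferrin-overlapping epitope.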
On the technique in general: ELISA stands for enzyme-linked immunosorbent assay.

The target in assay [2] is T1, hTfR (human transferrin receptor, …). Description: SPR (BioRad ProteOn XPR36), mAb captured on Protein A, hTfR as analyte, 25 C. The gist of the method: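 Antibodies at 2 ug/ml were captured on a Protein A GLM chip for 40 s. hTfR was injected as analyte from 43 nM in a 3-fold series, 2 min association and 1 h dissociation. Run at 25 degrees C in HEPES/150 mM NaCl pH 7.4 with tween-20 and 0.2 mg/ml BSA.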

For assay [3] the target is unchanged. Description: SPR (BioRad ProteOn XPR36), mAb captured on Protein A, hTfR as analyte, 25 C; 13E4_WT 2nd run. The protocol: (§2) The binding kinetics of nine exemplary humanized anti-TfR antibodies and the parent chimeric antibody were characterized. Studies were run on a BioRad ProteOn XPR36 optical biosensor using a GLM sensor chip coated with Protein A for mAb capture. Running buffer included 10 mM EPES, 150 mM NaCl, pH 7.4 with 0.05 tween-20 with 0.2 mg/ml BSA. Data were collected at 25 degrees C. All mAbs were diluted into running buffer to 2 ug/ml based on the stock concentration provided. Each was then captured for 40 seconds over a Protein A surface.
(§3) hTfR (100 ug) was dissolved into […] of water to yield a 4.3 uM stock concentration. hTfR was dilted to 43 nM as the highest concentration and tested in a 3 fold dilution series. hTfR was injected at 200 ul/min for 2 minutes followed by a one-hour dissociation phase.

For assay [4] the target is unchanged. In words: SPR (BioRad ProteOn XPR36), average of the three 13E4_WT runs, mAb captured on Protein A, hTfR as analyte, 25 C; Average (n = 3) of the three 13E4_WT runs. The protocol:
as §2, §3

For assay [5] the target is unchanged. Description: SPR (BioRad ProteOn XPR36), average of the three 13E4_WT runs, mAb captured on Protein A, hTfR as analyte, 25 C. The method, then:
as §2, §3

Assay [6] has the same target. Description: ELISA, biotinylated antibody on hTfR captured by plate-coated HFE (HFE+TfR); fit: specific binding with Hill slope.
Assay [7] deals with T2, recombinant human transferrin receptor protein (Sino Biological 11020-H07H) (human, UniProt P02786 89-760).
T2 construct: Bought protein coated on ELISA plates; also called recombinant human TfR1; human TfR1
Description: ELISA on plate-coated recombinant human TfR1 (CD71); fit: specific binding with Hill slope. The protocol: Half-well high-binding 96-well plates (Costar #3690) were coated with recombinant human transferrin receptor protein (Sino Biological 11020-H07H) or recombinant cyno transferrin receptor protein (Sino Biological 90253-C07H) at 1 ng/μL in PBS (Gibco 14190) and incubated overnight at 4° C. Plates were washed four times with 100 μL of Tris buffered saline+Tween (20×TBST, Cell Signaling 9997S). 100 μL of Superblock (ThermoFisher PI-37535) was added to each well and incubated for 1 hour at room temperature. The wash step was repeated before the addition of the samples. Samples were added at concentrations up to 10 nM, 50 μL/well. Plates were incubated for another hour at room temp and wash step repeated. Secondary antibody (Peroxidase AffiniPure Goat Anti-Human IgG, Fcγ Fragment Specific, Jackson Immunoresearch, 109-035-098) was diluted 1:5000 in Superblock and 50 μL/well added. Plates were incubated for 1 hour at room temperature and washed one more time. Binding was measured by the addition of 50 μL of 1-Step™ Ultra TMB-ELISA (ThermoFisher, 34028), incubated for 5 minutes, and the reaction was stopped with the addition of 25 μL of Stop Solution 2N sulfuric Acid (R&D Systems DY994). Absorbance was measured at 450 nm, with reference wavelength 570 nm subtracted. Binding constants were determined using GraphPad Prism Specific Binding with Hill Slope.

The target in assay [8] is T1, hTfR (human transferrin receptor, …). Description: ELISA, biotinylated antibody on hTfR captured by plate-coated human holo-transferrin (Tf+TfR); fit: specific binding with Hill slope. A digest of the protocol:
as §1

The target is the same in assay [9]. In words: ELISA; ratio of the Kd on HFE-captured hTfR to the Kd on directly coated hTfR.

Several values for one entry are separate records, joined by “and”; a condition that tells them apart may be missing. Identical values can stand only once.

T1 sequence (P02786 89-760 limits assumed): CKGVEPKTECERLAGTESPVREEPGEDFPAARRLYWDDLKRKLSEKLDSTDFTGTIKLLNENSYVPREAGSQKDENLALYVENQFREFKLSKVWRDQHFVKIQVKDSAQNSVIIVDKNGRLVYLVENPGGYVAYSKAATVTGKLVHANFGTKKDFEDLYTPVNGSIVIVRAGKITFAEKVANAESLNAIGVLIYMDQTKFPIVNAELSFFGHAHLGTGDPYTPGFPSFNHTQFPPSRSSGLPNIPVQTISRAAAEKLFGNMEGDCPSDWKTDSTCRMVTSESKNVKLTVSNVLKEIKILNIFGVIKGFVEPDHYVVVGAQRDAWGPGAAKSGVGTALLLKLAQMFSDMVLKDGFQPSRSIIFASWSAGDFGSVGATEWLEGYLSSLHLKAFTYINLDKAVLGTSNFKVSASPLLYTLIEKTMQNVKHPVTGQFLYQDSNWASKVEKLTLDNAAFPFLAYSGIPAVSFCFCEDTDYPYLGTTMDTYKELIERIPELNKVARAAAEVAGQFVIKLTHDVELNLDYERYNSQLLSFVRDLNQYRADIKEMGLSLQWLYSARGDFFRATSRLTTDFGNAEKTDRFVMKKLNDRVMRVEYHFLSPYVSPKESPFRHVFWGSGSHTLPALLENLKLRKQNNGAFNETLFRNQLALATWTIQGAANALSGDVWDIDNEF
T2 sequence (P02786 89-760 limits assumed): as above

B1: 13E4_WT (parent chimeric anti-TfR antibody) (antibody, V domains shown)
VH: QVQLQQPGAELVKPGASVKLSCKASGYTFTNYWMHWVKQRPGQGLEWIGEINPINGRSNYGERFKTKATLTVDKSSSTAYMQLSSLTSEDSAVYYCARGTRAMHYWGQGTSVTVSS
VL: DIQMTQSPASLSVSVGETVTITCRTSENIYNNLAWYQQKQGKSPQLLVYAATNLADGVPSRFSGSGSGTQYSLKINSLQSEDFGNYYCQHFWGTPLTFGAGTKLELK
notes: also called 13E4_WT 1st; 13E4_WT 2nd
Broadly, the kon is the second-order rate constant of association. Low readings indicate slower complex formation, high ones faster complex formation. The term koff denotes a measure of how fast the partners let go of each other. Read a low koff as a long-lived complex. One may read the Kd as the constant that tells how readily two partners part at equilibrium. B1: the “Kd(Tf+TfR)/Kd(TfR)” value in [1] amounted to 3.1. For the same molecule, the kon in assay [2] was 1.06e+06 M⁻¹ s⁻¹ and 903000 M⁻¹ s⁻¹ and 840000 M⁻¹ s⁻¹; in assay [4], 900000 M⁻¹ s⁻¹. In addition, the figures for the koff in assay [3] and in assay [5] were 1.5e-06 s⁻¹ and 1e-06 s⁻¹, respectively. For the same molecule, the Kd in assay [5] amounted to 0.0011 nM; in assay [6], 0.286 nM; in [7], 0.0062 nM; in assay [8], 0.0518 nM. For the same molecule, the values for the Bmax in [6], in assay [7] and in assay [8] were 2.88 A450, 98.3 % max binding and 3.45 A450, respectively. The h in [6] was 1.54; in assay [7] it was 1.18; in assay [8], 1.57. Also, the “Kd(HFE+TfR)/Kd(TfR)” value in assay [9] was found to be 16.9.
